Experimental data reported in US20040029198A1, “Method of analyzing ataxia-telangiectasia protein” (priority 2002, published 2004).

Tests used:
[1] = Stability of ATM in isolated PBMC samples stored at different temperatures, measured by sandwich immunoassay; type: physicochemical; details: for amount of ATM: in ng/mL (unit assumed)
Experimental: The following is a sandwich immunoassay which was performed to measure ATM protein in nuclear cell lysates and cell extracts from cell lines and peripheral blood mononuclear cells taken from normal individuals and A-T patients.
Wells of a 96-well flat bottom plate were incubated with two purified commercially available anti-ATM mouse monoclonal antibodies (ATM-2C1, GeneTex, Inc, San Antonio, Tex.; Ab-8, NeoMarkers, Fremont, Calif.) at 5 μg/ml in phosphate-buffered saline, pH 7.4 for 6 hours. After extensive washing and blocking of the wells for one hour with a solution of 3% bovine serum albumin in phosphate buffered saline containing 0.1% Tween-20, standard concentrations of purified ATM protein and nuclear cell lysates or cell extracts (see below) were added to the wells for an overnight incubation at room temperature.
After extensive washing, a rabbit anti-ATM antiserum at a 400× dilution was added to each of the wells and incubated for 3 hours at room temperature. The antiserum came from Novus Biologicals (NB 100-104, Littleton, Colo.). After washing and blocking, an HRP-conjugated goat anti-rabbit IgG antiserum at a 1:6000 dilution was added to each well and incubated for 3 hours at room temperature. The conjugate came from Jackson ImmunoResearch Laboratories (211-035-109, West Grove, Pa.).
The plate was then washed and Pierce ImmunoPure tetramethylbenzidine (TMB) substrate (34021, Rockford, Ill.) was added to each well. After color development, the reaction was stopped with 1M sulfuric acid and the color intensity was measured spectrophometrically at 450 nm. A concentration curve was generated based on signals generated for the purified ATM protein and concentrations of unknown samples were read off the standard curve.
Nuclear lysates were prepared from lymphoblastoid cell lines (EBV-infected) derived from A-T patients and healthy donors using commercially available extraction reagents and procedures (78833, Pierce, Rockford, Ill.). Whole cell extracts were generated from peripheral blood mononuclear cells and lymphoblastoid cell lines by subjecting known numbers of resuspended cells to ultrasonic energy at a 20 kHz frequency generated by a Fisher Sonic Dismembrator (model 550). The disrupted cell product was then added directly to wells of the microtiter plate without any additional manipulations.
(§1) It has been observed that ATM protein is unstable in whole blood. […] It is therefore preferable that ATM proteins be isolated and measured shortly after extracting the cells from a patient to obtain the most reliable data. […] Table 2 compares the amount of ATM in two such samples stored at −5° C. and −70° C.

[2] = Stability of ATM protein in whole blood; type: physicochemical; details: FIG. 3
Experimental: as §1

## ATM: 370 kDa protein kinase known as "ataxia-telangiectasia, mutated" (ATM), encoded by the A-T gene
[1]; PBMCs isolated from fresh blood, stored at −70° C. for 6 weeks
  stability of ATM levels in a sample: relatively stable
[1]; stored at −5° C., week 0, 3 readings
  amount of ATM: 444 ± 22
[1]; stored at −5° C., week 1, 3 readings
  amount of ATM: 126 ± 8
[1]; stored at −5° C., week 2, 3 readings
  amount of ATM: 115 ± 14
[1]; stored at −5° C., week 3, 3 readings
  amount of ATM: 66 ± 17
[1]; stored at −5° C., week 4, 3 readings
  amount of ATM: 50 ± 10
[1]; stored at −5° C., week 6, 3 readings
  amount of ATM: 32 ± 2
[1]; stored at −70° C., week 0, 3 readings
  amount of ATM: 444 ± 22
[1]; stored at −70° C., week 1, 3 readings
  amount of ATM: 458 ± 11
[1]; stored at −70° C., week 2, 3 readings
  amount of ATM: 512 ± 63
[1]; stored at −70° C., week 3, 3 readings
  amount of ATM: 424 ± 34
[1]; stored at −70° C., week 4, 3 readings
  amount of ATM: 439 ± 79
[1]; stored at −70° C., week 6, 3 readings
  amount of ATM: 458 ± 69
[2]
  stability in whole blood: unstable
